According to US20210180067, “NUCLEIC ACID APTAMERS” (UNIVERSITY OF IOWA RESEARCH FOUNDATION, published 2021):

Tests used:
[1] = target: T1, CD25 (IL-2 receptor alpha, IL2RA) (Homo sapiens, UniProt P01589 P01589:22-240); assay: pulldown; 100 nM RNA, CD25 Dynabeads, HEPES saline 2 mM CaCl2, BSA, tRNA, 37 C, RT-qPCR; greater than C-248; details: tags: His-tag; Thermo Fisher
Procedure: (§1) Aptamer binding to recombinant CD25 protein or CD25-IL2 receptor-ligand complex-coated Dynabeads was measured as follows. Streptavidin-coated Dynabeads, antibody-coupling kit, and Dynabeads for His-tagged protein binding were obtained from Thermo Fisher. Histidine-tagged recombinant human CD25 (Thermo Fisher, USA) was coated onto His-tag-binding Dynabeads (Thermo Fisher, USA). Protein coated beads were blocked with binding buffer [HEPES-buffered saline with 2 mM CaCl2) containing 0.1 mg/ml BSA and tRNA. In cases where CD25-IL2 complexes were tested, equimolar amounts of IL2 was incubated with CD25-coated beads for 30 minutes at 37 degrees Celsius and the unbound IL2 was washed away. Folded aptamers were then incubated with CD25- or CD25-IL2-coated beads at a concentration of 100 nM for 30 minutes at 37 degrees Celsius under rotation. Beads were then washed thrice with binding buffer at 37 degrees Celsius. Bound RNA aptamers were extracted using Trizol spiked with M12-23 reference control and were quantified using SyBR green-based RT-qPCR assay. The bead-bound SEL2 aptamers were normalized to M12-23 reference control before further analysis. The values obtained for Treg-binding aptamers were normalized to the negative control aptamer, C-248, and plotted. Nucleotides corresponding to the N20 region are underlined and italicized.

CD25 (IL2RA)-IL2 complex [2] = target: T2, CD25 (IL2RA)-IL2 complex (Homo sapiens, UniProt P01589;P60568 P01589:22-240,P60568:21-153); assay: pulldown; binding increased vs unoccupied CD25; 2 mM CaCl2, 37 C, RT-qPCR; correlates with IL2 occupancy (R2=0.724); details: tags: CD25 His-tagged, Thermo Fisher
Procedure: as §1

[3] = target: T1, CD25 (IL-2 receptor alpha, IL2RA); assay: pulldown; 100 nM RNA, CD25 Dynabeads, 2 mM CaCl2, 37 C, RT-qPCR; prefers unoccupied CD25; details: tags: His-tag; Thermo Fisher
Procedure: as §1

[4] = target: T1, CD25 (IL-2 receptor alpha, IL2RA); assay: pulldown; 100 nM RNA, CD25 Dynabeads, 2 mM CaCl2, 37 C, RT-qPCR; greater than C-248; details: tags: His-tag; Thermo Fisher
Procedure: as §1

CD25 (IL2RA)-IL2 complex [5] = target: T2, CD25 (IL2RA)-IL2 complex; assay: pulldown; similar binding to unoccupied CD25 and complex; 2 mM CaCl2, 37 C, RT-qPCR; details: tags: CD25 His-tagged, Thermo Fisher
Procedure: as §1

CD25 (IL2RA)-IL2 complex [6] = target: T2, CD25 (IL2RA)-IL2 complex; assay: pulldown; binding increased vs unoccupied CD25; 2 mM CaCl2, 37 C, RT-qPCR; correlates with IL2 occupancy (R2=0.661); details: tags: CD25 His-tagged, Thermo Fisher
Procedure: as §1

[7] = target: T1, CD25 (IL-2 receptor alpha, IL2RA); assay: pulldown; negative control used for normalisation; 2 mM CaCl2, 37 C, RT-qPCR; details: tags: His-tag; Thermo Fisher
Procedure: as §1

T2 sequence (P01589 22-240, chain 1 of 2): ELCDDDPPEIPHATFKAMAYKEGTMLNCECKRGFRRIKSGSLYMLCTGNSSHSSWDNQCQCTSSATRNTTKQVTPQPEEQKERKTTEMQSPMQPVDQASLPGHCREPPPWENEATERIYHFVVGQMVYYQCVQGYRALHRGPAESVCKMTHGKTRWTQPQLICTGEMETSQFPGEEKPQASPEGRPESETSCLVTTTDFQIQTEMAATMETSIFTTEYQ
T2 sequence (P60568 21-153, chain 2 of 2): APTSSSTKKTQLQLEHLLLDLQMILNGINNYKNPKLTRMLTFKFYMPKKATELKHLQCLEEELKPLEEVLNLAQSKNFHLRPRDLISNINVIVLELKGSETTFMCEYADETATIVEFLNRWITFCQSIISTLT
T1 sequence (P01589 22-240, one chain of several): as the sequence (P01589 22-240, chain 1 of 2) above

B1: Tr-1 (ssRNA)
RNA: GGGAGGACGAUGCGGUCCUGUCGUCUGUUCGUCCCCAGACGACUCGCCCGA
modifications: 2'-F C and U
binding result [1]: binds
binding result (CD25 (IL2RA)-IL2 complex [2]): binds

B2: Tr-6 (ssRNA)
RNA: GGGAGGACGAUGCGGCGUUUCCUCUGGUUCGUCCCCAGACGACUCGCCCGA
modifications: 2'-F C and U
binding result [3]: binds

B3: Tr-11 (ssRNA)
RNA: GGGAGGACGAUGCGGAUUCUGGUUACUGGCCGCCCCAGACGACUCGCCCGA
modifications: 2'-F C and U
binding result [4]: binds
binding result (CD25 (IL2RA)-IL2 complex [5]): binds

B4: Tr-7 (ssRNA)
RNA: GGGAGGACGAUGCGGUGAGUCGUUCCCUUCGUCCCCAGACGACUCGCCCGA
modifications: 2'-F C and U
binding result [4]: binds
binding result (CD25 (IL2RA)-IL2 complex [6]): binds

B5: Tr-8 (ssRNA)
RNA: GGGAGGACGAUGCGGGCCGUUGUUGUGUGCCGCCCCAGACGACUCGCCCGA
modifications: 2'-F C and U
binding result [3]: binds

B6: C-248 (ssRNA)
RNA: GGGAGGACGAUGCGGCACACCGAAAUGUCCCGACUCAGACGACUCGCCCGA
modifications: 2'-F C and U
binding result [7]: no binding
